Source: US20140087995A1 (published 2014)
Numbered stars: 1 amine (or outer) side, 2 acyl side, 3 side chain; on linkers, the order of the positions; unused ones are H or OH. Bridge positions count the residues as written; N and C are the ends. Side chains are listed from the residue outwards. Ends that are not written are not given here. * marks the point of attachment. C20 diacid = O=C(O)CCCCCCCCCCCCCCCCCCC(=O)*; γGlu = O=C(O)[C@H](CCC(=O)[*:2])N[*:1]; AEEA = NCCOCCOCC(=O)O

T1: rat calcitonin receptor (rat, UniProt P32214 25-516)
T1 construct: whole, on cells; Used as membranes prepared from the transfected cells; also called rCTR; rCT
T1 sequence (looked up): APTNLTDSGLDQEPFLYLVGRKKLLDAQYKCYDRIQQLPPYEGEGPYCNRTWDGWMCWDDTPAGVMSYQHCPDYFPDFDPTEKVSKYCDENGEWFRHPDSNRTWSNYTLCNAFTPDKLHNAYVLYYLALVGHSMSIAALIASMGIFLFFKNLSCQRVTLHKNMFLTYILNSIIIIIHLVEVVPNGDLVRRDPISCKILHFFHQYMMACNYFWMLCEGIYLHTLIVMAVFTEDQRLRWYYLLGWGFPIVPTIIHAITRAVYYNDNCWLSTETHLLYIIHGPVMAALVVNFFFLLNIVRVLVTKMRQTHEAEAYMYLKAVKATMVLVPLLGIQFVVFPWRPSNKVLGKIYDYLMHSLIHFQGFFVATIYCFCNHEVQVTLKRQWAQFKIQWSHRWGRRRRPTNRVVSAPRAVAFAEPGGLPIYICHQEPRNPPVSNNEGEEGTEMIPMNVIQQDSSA

T2: human calcitonin receptor (human, UniProt P30988 25-474)
T2 construct: whole, on cells; Used as membranes prepared from the transfected cells; also called hCTR; hCT
T2 sequence (looked up): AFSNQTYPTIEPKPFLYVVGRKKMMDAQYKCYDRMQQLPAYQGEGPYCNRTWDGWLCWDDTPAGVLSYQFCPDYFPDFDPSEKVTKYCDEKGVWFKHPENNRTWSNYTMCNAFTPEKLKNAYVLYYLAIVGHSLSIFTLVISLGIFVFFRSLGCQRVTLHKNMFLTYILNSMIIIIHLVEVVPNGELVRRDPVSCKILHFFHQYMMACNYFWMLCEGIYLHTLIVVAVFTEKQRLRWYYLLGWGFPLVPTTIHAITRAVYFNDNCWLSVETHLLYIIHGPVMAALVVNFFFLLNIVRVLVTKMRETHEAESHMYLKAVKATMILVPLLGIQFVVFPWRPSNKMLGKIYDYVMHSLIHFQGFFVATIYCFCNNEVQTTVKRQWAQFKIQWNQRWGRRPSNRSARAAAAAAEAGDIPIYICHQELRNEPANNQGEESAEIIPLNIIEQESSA

B1: N^ε1-[2-[2-[2-[[(4S)-4-carboxy-4-(19-carboxynonadecanoylamino)butanoyl]amino]ethoxy]ethoxy]acetyl]-[His14,Arg17,Pro21,Pro27]-h-amylin (peptide)
peptide: K([AEEA-γGlu-C20 diacid])CNTATCATQRLAHFLRHSSPNFGAIPSSTNVGSNTY-NH2
modifications: disulfide 2-7; N-terminus assumed
SMILES: CC[C@H](C)[C@H](NC(=O)[C@H](C)NC(=O)CNC(=O)[C@H](Cc1ccccc1)NC(=O)[C@H](CC(N)=O)NC(=O)[C@@H]1CCCN1C(=O)[C@H](CO)NC(=O)[C@H](CO)NC(=O)[C@H](Cc1c[nH]cn1)NC(=O)[C@H](CCCNC(=N)N)NC(=O)[C@H](CC(C)C)NC(=O)[C@H](Cc1ccccc1)NC(=O)[C@H](Cc1c[nH]cn1)NC(=O)[C@H](C)NC(=O)[C@H](CC(C)C)NC(=O)[C@H](CCCNC(=N)N)NC(=O)[C@H](CCC(N)=O)NC(=O)[C@@H](NC(=O)[C@H](C)NC(=O)[C@@H]1CSSC[C@H](NC(=O)[C@@H](N)CCCCNC(=O)COCCOCCNC(=O)CC[C@H](NC(=O)CCCCCCCCCCCCCCCCCCC(=O)O)C(=O)O)C(=O)N[C@@H](CC(N)=O)C(=O)N[C@@H]([C@@H](C)O)C(=O)N[C@@H](C)C(=O)N[C@@H]([C@@H](C)O)C(=O)N1)[C@@H](C)O)C(=O)N1CCC[C@H]1C(=O)N[C@@H](CO)C(=O)N[C@@H](CO)C(=O)N[C@H](C(=O)N[C@@H](CC(N)=O)C(=O)N[C@H](C(=O)NCC(=O)N[C@@H](CO)C(=O)N[C@@H](CC(N)=O)C(=O)N[C@H](C(=O)N[C@@H](Cc1ccc(O)cc1)C(N)=O)[C@@H](C)O)C(C)C)[C@@H](C)O
notes: Analogue of human amylin; disulfide and C-terminal amide as told for h-amylin; also called compound 69
B2: N^ε1-[2-[2-[2-(19-carboxynonadecanoylamino)ethoxy]ethoxy]acetyl]-[Arg17,Pro21,Pro27,His34]-h-amylin (peptide)
peptide: K([AEEA-C20 diacid])CNTATCATQRLANFLRHSSPNFGAIPSSTNVGHNTY-NH2
modifications: disulfide 2-7; N-terminus assumed
SMILES: CC[C@H](C)[C@H](NC(=O)[C@H](C)NC(=O)CNC(=O)[C@H](Cc1ccccc1)NC(=O)[C@H](CC(N)=O)NC(=O)[C@@H]1CCCN1C(=O)[C@H](CO)NC(=O)[C@H](CO)NC(=O)[C@H](Cc1c[nH]cn1)NC(=O)[C@H](CCCNC(=N)N)NC(=O)[C@H](CC(C)C)NC(=O)[C@H](Cc1ccccc1)NC(=O)[C@H](CC(N)=O)NC(=O)[C@H](C)NC(=O)[C@H](CC(C)C)NC(=O)[C@H](CCCNC(=N)N)NC(=O)[C@H](CCC(N)=O)NC(=O)[C@@H](NC(=O)[C@H](C)NC(=O)[C@@H]1CSSC[C@H](NC(=O)[C@@H](N)CCCCNC(=O)COCCOCCNC(=O)CCCCCCCCCCCCCCCCCCC(=O)O)C(=O)N[C@@H](CC(N)=O)C(=O)N[C@@H]([C@@H](C)O)C(=O)N[C@@H](C)C(=O)N[C@@H]([C@@H](C)O)C(=O)N1)[C@@H](C)O)C(=O)N1CCC[C@H]1C(=O)N[C@@H](CO)C(=O)N[C@@H](CO)C(=O)N[C@H](C(=O)N[C@@H](CC(N)=O)C(=O)N[C@H](C(=O)NCC(=O)N[C@@H](Cc1c[nH]cn1)C(=O)N[C@@H](CC(N)=O)C(=O)N[C@H](C(=O)N[C@@H](Cc1ccc(O)cc1)C(N)=O)[C@@H](C)O)C(C)C)[C@@H](C)O
notes: Analogue of human amylin; disulfide and C-terminal amide as told for h-amylin; also called compound 91
B3: N^ε1-[2-[2-[2-[[(4S)-4-carboxy-4-(19-carboxynonadecanoylamino)butanoyl]amino]ethoxy]ethoxy]acetyl]-[Arg14,Arg17,Pro21,Pro27,Pro31]-h-amylin (peptide)
peptide: K([AEEA-γGlu-C20 diacid])CNTATCATQRLARFLRHSSPNFGAIPSSTPVGSNTY-NH2
modifications: disulfide 2-7; N-terminus assumed
SMILES: CC[C@H](C)[C@H](NC(=O)[C@H](C)NC(=O)CNC(=O)[C@H](Cc1ccccc1)NC(=O)[C@H](CC(N)=O)NC(=O)[C@@H]1CCCN1C(=O)[C@H](CO)NC(=O)[C@H](CO)NC(=O)[C@H](Cc1c[nH]cn1)NC(=O)[C@H](CCCNC(=N)N)NC(=O)[C@H](CC(C)C)NC(=O)[C@H](Cc1ccccc1)NC(=O)[C@H](CCCNC(=N)N)NC(=O)[C@H](C)NC(=O)[C@H](CC(C)C)NC(=O)[C@H](CCCNC(=N)N)NC(=O)[C@H](CCC(N)=O)NC(=O)[C@@H](NC(=O)[C@H](C)NC(=O)[C@@H]1CSSC[C@H](NC(=O)[C@@H](N)CCCCNC(=O)COCCOCCNC(=O)CC[C@H](NC(=O)CCCCCCCCCCCCCCCCCCC(=O)O)C(=O)O)C(=O)N[C@@H](CC(N)=O)C(=O)N[C@@H]([C@@H](C)O)C(=O)N[C@@H](C)C(=O)N[C@@H]([C@@H](C)O)C(=O)N1)[C@@H](C)O)C(=O)N1CCC[C@H]1C(=O)N[C@@H](CO)C(=O)N[C@@H](CO)C(=O)N[C@H](C(=O)N1CCC[C@H]1C(=O)N[C@H](C(=O)NCC(=O)N[C@@H](CO)C(=O)N[C@@H](CC(N)=O)C(=O)N[C@H](C(=O)N[C@@H](Cc1ccc(O)cc1)C(N)=O)[C@@H](C)O)C(C)C)[C@@H](C)O
notes: Analogue of human amylin; disulfide and C-terminal amide as told for h-amylin; also called compound 64
B4: N^ε1-[2-[2-[2-[[(4S)-4-carboxy-4-(19-carboxynonadecanoylamino)butanoyl]amino]ethoxy]ethoxy]acetyl]-[Ala14,Arg17,Pro21,Pro27,Pro31]-h-amylin (peptide)
peptide: K([AEEA-γGlu-C20 diacid])CNTATCATQRLAAFLRHSSPNFGAIPSSTPVGSNTY-NH2
modifications: disulfide 2-7; N-terminus assumed
SMILES: CC[C@H](C)[C@H](NC(=O)[C@H](C)NC(=O)CNC(=O)[C@H](Cc1ccccc1)NC(=O)[C@H](CC(N)=O)NC(=O)[C@@H]1CCCN1C(=O)[C@H](CO)NC(=O)[C@H](CO)NC(=O)[C@H](Cc1c[nH]cn1)NC(=O)[C@H](CCCNC(=N)N)NC(=O)[C@H](CC(C)C)NC(=O)[C@H](Cc1ccccc1)NC(=O)[C@H](C)NC(=O)[C@H](C)NC(=O)[C@H](CC(C)C)NC(=O)[C@H](CCCNC(=N)N)NC(=O)[C@H](CCC(N)=O)NC(=O)[C@@H](NC(=O)[C@H](C)NC(=O)[C@@H]1CSSC[C@H](NC(=O)[C@@H](N)CCCCNC(=O)COCCOCCNC(=O)CC[C@H](NC(=O)CCCCCCCCCCCCCCCCCCC(=O)O)C(=O)O)C(=O)N[C@@H](CC(N)=O)C(=O)N[C@@H]([C@@H](C)O)C(=O)N[C@@H](C)C(=O)N[C@@H]([C@@H](C)O)C(=O)N1)[C@@H](C)O)C(=O)N1CCC[C@H]1C(=O)N[C@@H](CO)C(=O)N[C@@H](CO)C(=O)N[C@H](C(=O)N1CCC[C@H]1C(=O)N[C@H](C(=O)NCC(=O)N[C@@H](CO)C(=O)N[C@@H](CC(N)=O)C(=O)N[C@H](C(=O)N[C@@H](Cc1ccc(O)cc1)C(N)=O)[C@@H](C)O)C(C)C)[C@@H](C)O
notes: Analogue of human amylin; disulfide and C-terminal amide as told for h-amylin; also called compound 72

target: T1, rat calcitonin receptor; assay: SPA competition with 125I-calcitonin, membranes with rat calcitonin receptor (Assay VIII)

Binder	IC50 [nM]
B1	46.8
B2	29.4
B3	128
B4	221

target: T1, rat calcitonin receptor; assay: ratio of binding IC50 at rat calcitonin receptor to IC50 at rat amylin receptor (reference)

Binder	Ratio rCT/rAmylin binding
B1	104
B2	76.3
B3	64.7
B4	259

target: T2, human calcitonin receptor; assay: ratio of binding IC50 at human calcitonin receptor to IC50 at human amylin receptor (reference)
Protocol: The resulting pellet was resuspended, homogenized and centrifuged (20.000 rpm, 15 min) in a buffer containing 20 mM Na-HEPES and 0.1 mM EDTA (pH 7.4, buffer 2). The resulting pellet was resuspended in buffer 2 and protein concentration was measured (BCA protein Assay, Pierce). The homogenate was kept cold during the whole procedure. The membranes were kept at −80° C. until use. The assay was performed in a 384 well Optiplate (PerkinElmer) in a total volume of 40 ul. Membranes were mixed with SPA beads. Final concentration of membranes 35 ng/μL final and SPA beads was 0.05 mg/well. Test-compounds were dissolved in DMSO and further diluted in assay buffer (50 mM Hepes, pH 7.4, 1 mM CaCl2, 5 mM MgCl₂, 0.1% OA and 0.02% Tween20). […] The final mixture was incubated with shaking at 400 rpm for 120 min at 25° C. prior to centrifugation (1500 rpm, 10 min). Samples were analyzed on TopCounter™ (Packard). The IC₅₀ was calculated using (one site binding competition analysis) GraphPad Prism5 as a measure of receptor affinity.
Membranes were prepared in the following way; the cells were rinsed with PBS and incubated with Versene for approximately 5 min before harvesting. The cells were flushed with PBS and the cell-suspension was centrifuged for 5 min at 1000 rpm. Cells were homogenized (Ultrathurrax) in a buffer containing 20 mM Na-HEPES and 10 mM EDTA (pH 7.4) and centrifuged at 20.000 rpm for 15 min. The resulting pellet was resuspended, homogenized and centrifuged (20.000 rpm, 15 min) in a buffer containing 20 mM Na-HEPES and 0.1 mM EDTA (pH 7.4, buffer 2). The resulting pellet was resuspended in buffer 2 and protein concentration was measured (BCA protein Assay, Pierce). The homogenate was kept cold during the whole procedure. The membranes were kept at −80° C. until use. Assay was performed in a 384 well Optiplate (PerkinElmer) in a total volume of 40 ul. Membranes were mixed with SPA beads.

Binder	Ratio hCT/hAmylin binding
B1	65.3
B2	101
B3	126
B4	247
